Data on one molecule can be found in US20240325557A1 (INNATE PHARMA, published 2024).

The target of test [1] is T1, human Nectin-4 Mutant 7bis (human, UniProt Q96NY8 32-510).
T1 construct: Expressed on transfected HEK-293T cells; also called A72P/G73N/K197T/S199A
T1 chain: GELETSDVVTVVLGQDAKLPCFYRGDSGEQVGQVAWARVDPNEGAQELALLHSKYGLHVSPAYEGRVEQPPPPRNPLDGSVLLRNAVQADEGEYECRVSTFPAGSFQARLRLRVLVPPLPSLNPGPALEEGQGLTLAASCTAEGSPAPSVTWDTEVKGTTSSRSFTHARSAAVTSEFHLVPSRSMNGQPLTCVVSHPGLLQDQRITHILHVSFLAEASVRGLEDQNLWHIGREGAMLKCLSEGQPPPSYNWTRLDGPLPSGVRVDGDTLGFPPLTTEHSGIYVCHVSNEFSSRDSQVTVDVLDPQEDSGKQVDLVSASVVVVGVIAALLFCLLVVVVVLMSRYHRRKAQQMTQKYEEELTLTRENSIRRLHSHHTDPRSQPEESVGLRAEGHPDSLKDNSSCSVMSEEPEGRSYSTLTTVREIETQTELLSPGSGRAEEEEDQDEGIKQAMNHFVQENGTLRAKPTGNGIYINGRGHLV
Put plainly: binding to HEK-293T cells transfected with the Nectin-4 mutant.

The target of test [2] is T2, human Nectin-4 Mutant 7 (human, UniProt Q96NY8 32-510).
T2 construct: Expressed on transfected HEK-293T cells; also called S195A/K197T/S199A
T2 chain: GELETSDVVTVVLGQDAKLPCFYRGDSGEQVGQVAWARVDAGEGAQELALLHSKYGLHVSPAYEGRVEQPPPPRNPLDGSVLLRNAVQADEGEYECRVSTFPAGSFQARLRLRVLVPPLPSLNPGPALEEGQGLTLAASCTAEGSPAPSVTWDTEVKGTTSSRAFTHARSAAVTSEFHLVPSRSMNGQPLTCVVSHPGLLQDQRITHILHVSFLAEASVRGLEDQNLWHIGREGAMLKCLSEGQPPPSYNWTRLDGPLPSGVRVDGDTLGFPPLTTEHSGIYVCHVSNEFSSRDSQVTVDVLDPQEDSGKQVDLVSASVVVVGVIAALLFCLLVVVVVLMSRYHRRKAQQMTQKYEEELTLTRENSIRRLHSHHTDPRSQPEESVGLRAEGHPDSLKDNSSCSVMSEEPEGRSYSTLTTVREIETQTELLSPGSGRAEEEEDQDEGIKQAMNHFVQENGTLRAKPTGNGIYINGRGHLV
The test is described as above.

The target in test [3] is T3, wild-type human Nectin-4 on the CHO huNectin4 Cl.3C8 cell line (human, UniProt Q96NY8 32-510).
T3 construct: also called whole Nectin-4 protein; huNectin4 CI.3C8
T3 sequence: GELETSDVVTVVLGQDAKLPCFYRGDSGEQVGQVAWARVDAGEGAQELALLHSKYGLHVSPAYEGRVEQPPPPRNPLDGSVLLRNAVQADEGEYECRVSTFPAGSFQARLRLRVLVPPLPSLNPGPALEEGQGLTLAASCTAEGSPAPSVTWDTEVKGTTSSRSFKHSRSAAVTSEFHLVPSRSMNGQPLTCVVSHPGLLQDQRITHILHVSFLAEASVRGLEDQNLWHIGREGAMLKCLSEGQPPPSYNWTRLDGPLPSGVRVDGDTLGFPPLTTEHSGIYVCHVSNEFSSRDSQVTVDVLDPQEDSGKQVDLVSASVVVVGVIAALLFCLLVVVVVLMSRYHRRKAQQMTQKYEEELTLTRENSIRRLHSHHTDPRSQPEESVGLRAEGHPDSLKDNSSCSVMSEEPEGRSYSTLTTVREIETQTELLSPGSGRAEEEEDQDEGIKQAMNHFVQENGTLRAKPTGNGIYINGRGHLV
Description: flow cytometry on wild-type human Nectin-4 cell line.

Test [4] has as its target T4, human Nectin 2 on CHO cells (human, UniProt Q92692 32-538).
T4 sequence: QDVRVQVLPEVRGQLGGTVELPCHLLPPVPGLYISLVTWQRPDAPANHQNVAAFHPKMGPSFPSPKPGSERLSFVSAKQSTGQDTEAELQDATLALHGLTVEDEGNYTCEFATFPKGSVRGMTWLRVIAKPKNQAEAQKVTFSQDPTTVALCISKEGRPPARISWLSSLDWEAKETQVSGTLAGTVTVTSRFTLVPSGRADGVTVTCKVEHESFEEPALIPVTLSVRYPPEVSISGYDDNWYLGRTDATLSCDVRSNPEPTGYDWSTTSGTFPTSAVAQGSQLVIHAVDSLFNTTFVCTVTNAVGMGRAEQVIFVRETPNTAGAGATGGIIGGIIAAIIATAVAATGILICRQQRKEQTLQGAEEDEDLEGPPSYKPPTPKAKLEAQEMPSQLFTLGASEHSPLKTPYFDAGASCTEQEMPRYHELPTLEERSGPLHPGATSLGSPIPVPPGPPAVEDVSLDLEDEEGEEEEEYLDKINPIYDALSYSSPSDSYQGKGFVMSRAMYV
Description: flow cytometry on CHO cells expressing human Nectin 2. How it is done:
(§1) Anti-Nectin-4 antibodies were tested by flow cytometry for binding to different CHO cell lines made to express respectively the human Nectin 1, Nectin 2, Nectin 3 and PVR proteins. The expression of each cell lines was controlled and validated with known respectively the anti-human Nectin1, anti-human Nectin2, anti-human Nectin3 and anti-human PVR antibodies. The mature amino acid sequence of the proteins expressed by the cells were as follows:
(§2) Nectin 1, Nectin 2, Nectin 3 and PVR proteins as in Example 12. […] Epitope mapping was carried out by assessing competition for binding to Nectin-4 by SPR as in Example 14.
On the technique in general: In flow cytometry, cells or beads pass a laser one at a time.

In test [5] the target is T5, human Nectin 1 on CHO cells (human, UniProt Q15223 31-517).
T5 sequence: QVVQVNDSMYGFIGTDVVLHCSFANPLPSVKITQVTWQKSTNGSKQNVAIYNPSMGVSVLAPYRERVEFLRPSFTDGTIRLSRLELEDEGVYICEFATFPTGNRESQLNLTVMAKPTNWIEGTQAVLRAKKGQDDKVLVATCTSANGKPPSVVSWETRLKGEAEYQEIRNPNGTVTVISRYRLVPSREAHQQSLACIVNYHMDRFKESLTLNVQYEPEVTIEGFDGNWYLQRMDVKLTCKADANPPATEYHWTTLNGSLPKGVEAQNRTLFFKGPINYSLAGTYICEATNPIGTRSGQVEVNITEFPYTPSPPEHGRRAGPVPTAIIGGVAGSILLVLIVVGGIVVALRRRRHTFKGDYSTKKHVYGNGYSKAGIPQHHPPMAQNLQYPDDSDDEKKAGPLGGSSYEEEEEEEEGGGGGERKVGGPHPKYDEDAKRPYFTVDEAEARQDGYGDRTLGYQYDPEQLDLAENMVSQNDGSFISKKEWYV
Description: flow cytometry on CHO cells expressing human Nectin 1. On the procedure: as §1, §2

B1: antibody 6A7 (antibody, human IgG1, V domains shown)
VH: QVQLKESGAELVKPGASVKLSCKASGYTFTSYWMHWVKQRPGHGLEWVGEIDPSDSYTNYNQKFKGKATLTIDKSSSTVYMQLSSLTSEDSAVYYCARSGNYDAMDYWGQGTSVTVSA
VL: DIVMTQAAFSSAVTLGTSASISCRSSKSLLHSNGITYLYWYLQKPGQSPHFLIYQMSNLASGVPDRFTSSGSGTDFTLRISRVEAEDVGVYYCAQNLELPWTFGGGTKLEIK
notes: also called CHG1-M-4N4-6A7
In the case of B1, the binding result is recorded as “no binding” in test [1]; “no binding” in test [2]; “binds” in test [3]; “no binding” in test [4]; “no binding” in test [5].
